Values joined by “and” are separate entries in the source; they are usually repeats but may differ in a detail not shown here. Equal entries are not always repeated. “Also recorded” adds a separate entry of the source. Where two headings read alike, the source gives them in different places.
How the values were obtained:
Fusarium culmorum = details: low salt in vitro assay conditions; U.S. Pat. No. 6,916,970; cited from earlier work
Verticillium dahliae = details: low salt in vitro assay conditions; U.S. Pat. No. 6,916,970; cited from earlier work
F. graminearum PH-1 = format: cell-based, Fusarium graminearum
[1] = protein-lipid overlay (PIP Strips); format: binding
Procedure: (§1) To test the binding properties of MtDefS peptide A (MtDefS Peptide A; SEQ ID NO:4) and MtDef5FL1 (SEQ ID NO:7), a protein-lipid overlay experiment was performed using PIP Strips™ (2×6 cm nitrocellulose membranes) that are spotted with 100 pmol of various biologically active lipids (Echelon Biosciences, Salt Lake City, Utah). Briefly, lipid strips were blocked with 10 mL of blocking buffer, PBS-T/3% fat free BSA for 12-16 h at 4° C. with gentle agitation. The blocking buffer was discarded and the lipid strips were incubated with 5 mL of PBS-T/3% fat free BSA containing 1 μg/ml of MtDef5 peptide A or MtDef5FL1 for 60 min at 4° C. After hybridization, protein solution was discarded and the strips were then washed with PBS-T three times with gentle agitation for 20 minutes each at room temperature. The protein-lipid interactions were detected by subsequently incubating lipid strips with rabbit anti-MtDef5 peptide A derived synthetic peptide (1 μg/ml) diluted in 5 mL of blocking buffer with gentle agitation for 60 min at 4° C. The lipid strips were washed with PBS-T two times with gentle agitation, for 15 minutes each wash, at room temperature. HRP-conjugated Goat Anti-Rabbit IgG secondary antibody (Thermo Scientific, Cat no: SA 1-9510) diluted 1:4000 in blocking buffer was added to the lipid strips and incubated for 60 min at 4° C. After two washes with PBS-T, chemiluminescence was detected using SuperSignal® West Femto Maximum Sensitivity substrate kit (Thermo Scientific, Cat no: 34094) following the manufacturer's protocol.
(§2) To test the binding properties of MtDef5 and its γ-core motif variants, a protein-lipid overlay experiment was performed using PIP Strips™ (2×6 cm nitrocellulose membranes) that are spotted with 100 pmol of various biologically active lipids, respectively (Echelon Biosciences, Salt Lake City, Utah). To determine relative degree of the binding of MtDef5, PIP Array (Echelon Biosciences, UT) pre-spotted with concentration gradient of various phosphoinositides was used. Briefly, lipid strips and arrays were blocked with 10 mL of blocking buffer, PBS-T/3% fat free BSA for 12-16 h at 4° C. with gentle agitation. The blocking buffer was discarded and the lipid strips and arrays were incubated with 5 mL of PBS-T/3% fat free BSA, containing 3 μg/ml of MtDef5 or its variants for 60 min at 4° C. After hybridization, protein solution was discarded and the strips and arrays were then washed with PBS-T three times with gentle agitation for 20 minutes each at room temperature. The protein-lipid interactions were detected by subsequently incubating lipid strips and arrays with rabbit anti-MtDef5 derived synthetic peptide (1 μg/ml) antibody diluted in 5 mL of blocking buffer with gentle agitation for 60 min at 4° C. The lipid strips and arrays were washed with PBS-T two times with gentle agitation, for 15 minutes each wash, at room temperature. HRP-conjugated Goat Anti-Rabbit IgG secondary antibody (Thermo Scientific, Cat no: SA 1-9510) diluted 1:4000 in blocking buffer was added to the lipid strips and arrays and incubated for 60 min at 4° C. After two washes with PBS-T, chemiluminescence was detected using SuperSignal® West Femto Maximum Sensitivity substrate kit (Thermo Scientific, Cat no: 34094) following the manufacturer's protocol.

[2] = protein-lipid overlay (PIP Strips, PIP Array); format: binding; details: for binding to PI3P, PI4P and PI5P: Example 2, PIP Strips, 1 μg/ml protein, FIG. 9
Procedure: as §1
as §2, with “After hybridization, protein solution was discarded and the strips and arrays were then washed with PBS-T three times with gentle agitation for 20 minutes each at room temperature.” left out, “The lipid strips and arrays were washed with PBS-T two times with gentle agitation, for 15 minutes each wash, at room temperature. HRP-conjugated Goat Anti-Rabbit IgG secondary antibody (Thermo Scientific, Cat no: SA 1-9510) diluted 1:4000 in blocking buffer was added to the lipid strips and arrays and incubated for 60 min at 4° C.” left out

N. crassa = format: cell-based, Neurospora crassa
[3] = phospholipid binding / protein-lipid overlay; details: Example 6, PIP strip, 3 μg/ml protein, FIG. 18A
Procedure: as §2, with “After hybridization, protein solution was discarded and the strips and arrays were then washed with PBS-T three times with gentle agitation for 20 minutes each at room temperature.” left out, “The lipid strips and arrays were washed with PBS-T two times with gentle agitation, for 15 minutes each wash, at room temperature. HRP-conjugated Goat Anti-Rabbit IgG secondary antibody (Thermo Scientific, Cat no: SA 1-9510) diluted 1:4000 in blocking buffer was added to the lipid strips and arrays and incubated for 60 min at 4° C.” left out

F. virguliforme = format: cell-based, Fusarium virguliforme
[4] = system: F. graminearum conidia and germlings; format: cell-based, Fusarium graminearum; details: DyLight550-labeled, 3μM, 3 hr, FIG. 17
Fusarium virguliforme = format: cell-based
Neurospora crassa = format: cell-based
Botrytis cinerea = format: cell-based; details: Example 6, FIG. 15
[5] = system: Colletotrichum higginsianum; format: cell-based; details: Example 6, FIG. 15
Alternaria brassicicola = format: cell-based; details: Example 6, FIG. 15
F. graminearum = format: cell-based, Fusarium graminearum
[6] = protein cross-linking (BS3) oligomerization assay; details: SDS-PAGE, FIG. 19, FIG. 23
Procedure: (§3) To determine the oligomeric status of MtDef5FL1 and its γ-core motif variants, protein cross-linking experiments were performed in the presence or absence of PIPs cross-linked with bis[sulfosuccinimidyl] suberate (BS3) substrate. Briefly, MtDef5 and its γ-core motif variants, prepared in 1× PBS buffer, at 1.5 mg/ml (5 μl) were incubated with 2.73 mM PI(3)P or PI(4)P or PI(5)P (1.5 μl) at room temperature for 30 min. The cross-linking reaction was initiated by addition of freshly dissolved water soluble 12.5 mM BS3 (0.5 μl) and incubated for 30 min at room temperature. After crosslinking, samples were reduced with 100 mM dithiothreitol (DTT) and separated on a 4-20% (Bio-Rad, TGX Stain-Free™ precast gels) SDS-PAGE. The oligomerization pattern was visualized using a Bio-Rad ChemiDoc XRS+ system.

[7] = target: the molecule itself; experiment: BS3 cross-linking with PIP, SDS-PAGE; self-oligomerization
Procedure: as §3

[8] = Example 6, FIG. 14, read-out: IC50 value against F. graminearum
[9] = activity of the indicated protein against Fusarium graminareum, Table 1, read-out: IC50 (nm)
[10] = Example 2, PIP Strips, 1 μg/ml protein, FIG. 9
[11] = Example 6, PIP strip, 3 μg/ml protein, FIG. 18A

MsDef1: Alfalfa (Medicago sativa) Defensin 1, SEQ ID NO:79 (RTCENLADKYRGPCFSGCDTHCTTKENAVSGRCRDDFRCWCTKRC; listed as Medicago sativa)
IC50, Fusarium culmorum growth (Fusarium culmorum): 1 µg/mL
IC50, Verticillium dahliae growth (Verticillium dahliae): 4 µg/mL

MtDef4: Medicago truncatula defensin peptide, SEQ ID NO:76 (RTCESQSHKFKGPCASDHNCASVCQTERFSGGHCRGFRRRCFCTTHC; listed as Medicago truncatula) [reference compound]
minimal inhibitory concentration (MIC or IC100) against F. graminearum (F. graminearum PH-1; Example 6, FIG. 14): 6 µM
IC50 (F. graminearum PH-1; [8]): 750 to 1500 nM

MtDef5A: single 50-amino acid MtDef5 defensin peptide A, SEQ ID NO:4 (KLCQKRSTTWSGPCLNTGNCKRQCINVEHATFGACHRQGFGFACFCYKKC; listed as Medicago truncatula)
IC50 (F. graminearum PH-1; [9]): 500 to 750 nM
binding to PI3,4P2 [1, 10]: also binds
binding to PI3,5P2 [1, 10]: also binds
binding to PI4,5P2 [1, 10]: also binds
binding to PS [1, 10]: fails to bind
binding to PI3P, PI4P and PI5P [2]: much less affinity than MtDef5FL1

NaD1: Nicotiana alata defensin peptide, SEQ ID NO:81 (RECKTESNTFPGICITKPPCRKACISEKFTDGHCSKILRRCLCTKPC; listed as Nicotiana alata) [reference compound]
IC50 (F. graminearum PH-1; [9]): 500 nM

TPP3: Tomato (Solanum lycopersicum) defensin peptide, SEQ ID NO:83 (QQICKAPSQTFPGLCFMDSSCRKYCIKEKFTGGHCSKLQRKCLCTKPC; listed as Solanum lycopersicum) [reference compound]
IC50 (F. graminearum PH-1; [9]): 500 nM

B1: MtDef5FL1: Medicago truncatula protein with MtDef5 defensin peptides A and B connected by a 7-amino acid linker; SEQ ID NO:7, expressed in Pichia (protein, listed as Medicago truncatula)
chain: CQKRSTTWSGPCLNTGNCKRQCINVEHATFGACHRQGFGFACFCYKKCAPKKVEPKLCERRSKTWSGPCLISGNCKRQCINVEHATSGACHRQGIGFACFCKKKC
SG uptake (plasma membrane permeabilization) (N. crassa): SG uptake was observed
SG uptake in hyphal cells (N. crassa): SG uptake was visible
binding to phoshatidic acid (PA) [3]: binds to a lesser extent
SG uptake (plasma membrane permeabilization) (F. virguliforme): SG uptake was observed
IC100 value against F. graminearum (F. graminearum PH-1; Example 1, FIG. 5A): 0.18 µM
IC50 (F. graminearum PH-1; Example 1, FIG. 5A, read-out: IC50 value against F. graminearum): 90 nM
minimal inhibitory concentration (MIC or IC100) against F. graminearum (F. graminearum PH-1; Example 6, FIG. 14): 0.75 µM
minimal inhibitory concentration (MIC or IC100) against F. graminearum (F. graminearum PH-1; Example 6, FIG. 14, listed as MtDef5): 0.7 to 0.75 µM
IC50 (F. graminearum PH-1; [8]): 250 to 300 nM
IC50 (F. graminearum PH-1; [9]): 90 nM
potency relative to MtDef4, based on the MIC values (F. graminearum PH-1; against F. graminearum): 3 to 5 fold
concentration inhibiting conidial germination completely (100% growth inhibition) (F. graminearum PH-1; microscopic observation after 14-16 hr incubation, FIG. 5B): 0.18 µM
internalization and localization in fungal cells [4]: is internalized by fungal cells; also recorded: diffuse localization within the cytoplasm
IC100 value against F. virguliforme (Fusarium virguliforme): 0.18 µM
antifungal activity against F. virguliforme (Fusarium virguliforme): potent antifungal activity
concentration inhibiting conidial germination completely (100% growth inhibition) (Fusarium virguliforme): 0.18 µM
IC50 (Fusarium virguliforme; read-out: IC50 value against F. virguliforme): 90 nM
binding to PI3,4P2 [1, 10]: binds to a lesser extent
binding to PI3,5P2 [1, 10]: binds to a lesser extent
binding to PI4,5P2 [1, 10]: binds to a lesser extent
binding to PS [1, 10]: binding to PS, is generated
binding to PI3,5P2 [1, 11]: binds to a lesser extent
binding to PI4,5P2 [1, 11]: binds to a lesser extent
binding to phosphatidylserine (PS) [1, 11]: binds to a lesser extent
IC100 value against N. crassa (Neurospora crassa): 0.18 µM
concentration inhibiting conidial germination completely (100% growth inhibition) (Neurospora crassa): 0.18 µM
minimal inhibitory concentration (MIC or IC100) against Neurospora crassa (Neurospora crassa): 0.7 to 0.75 µM and 0.75 µM
IC50 (Neurospora crassa; read-out: IC50 value against N. crassa): 90 nM
IC50 (Neurospora crassa; read-out: IC50 value against Neurospora crassa): 250 to 300 nM
binding to PI3P, PI4P and PI5P [2]: strongly binds; also recorded: significantly increases its binding affinity
binding to PI3P, PI4P and PI5P (PIPs) ([2]; Example 6, PIP strip, 3 μg/ml protein, FIG. 18A, FIG. 22): strongly binds
amount of PIP per spot at which binding to all three PIPs was observed ([2]; PIP Array, FIG. 18B): ≤ 12.5 pmoles per spot
antifungal activity against Botrytis cinerea (Bci) (Botrytis cinerea): potent antifungal activity
antifungal activity against Colletotrichum higginsianum [5]: potent antifungal activity
antifungal activity against Alternaria brassicicola (Alternaria brassicicola): potent antifungal activity
SG uptake (plasma membrane permeabilization) (F. graminearum; 0.180 μM (IC100) protein + 0.5 μm SG, 2 hrs, FIG. 6): SG uptake was observed
SG uptake in hyphal cells (F. graminearum; 0.75 μM MtDef5FL1, 3 hr, FIG. 16): SG uptake was visible
oligomerization in presence of PIPs [6]: formed higher-order oligomers only in the presence of PIPs; also recorded: forms higher order oligomers in presence of PIPs

B2: MtDef5FL1_V1 (other)
chain: KLCQAASTTWSGPCLNTGNCKRQCINVEHATFGACAAQGFGFACFCYKKCAPKKVEPKLCEAASKTWSGPCLISGNCKRQCINVEHATSGACAAQGIGFACFCKKKC
notes: Alanine variant expressed in P. pastoris; also called MtDef5FL1 γ-core motif variant V1
binding result [7]: no binding (tested: 1.5 mg/ml protein)
oligomerization in presence of PIPs [6]: no formation of higher order oligomers
